{"source": "paper PMC2981439", "origin": "cited, not measured here", "target": "quinone MADH (Paracoccus denitrificans) (UniProt P22619)", "sequence (P22619 58-188, chain 1 of 2)": "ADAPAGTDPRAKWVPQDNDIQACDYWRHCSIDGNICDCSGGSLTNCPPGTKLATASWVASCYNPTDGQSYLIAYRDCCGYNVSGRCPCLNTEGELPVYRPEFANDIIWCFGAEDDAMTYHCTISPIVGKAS", "sequence (P29894 29-417, chain 2 of 2, further chain)": "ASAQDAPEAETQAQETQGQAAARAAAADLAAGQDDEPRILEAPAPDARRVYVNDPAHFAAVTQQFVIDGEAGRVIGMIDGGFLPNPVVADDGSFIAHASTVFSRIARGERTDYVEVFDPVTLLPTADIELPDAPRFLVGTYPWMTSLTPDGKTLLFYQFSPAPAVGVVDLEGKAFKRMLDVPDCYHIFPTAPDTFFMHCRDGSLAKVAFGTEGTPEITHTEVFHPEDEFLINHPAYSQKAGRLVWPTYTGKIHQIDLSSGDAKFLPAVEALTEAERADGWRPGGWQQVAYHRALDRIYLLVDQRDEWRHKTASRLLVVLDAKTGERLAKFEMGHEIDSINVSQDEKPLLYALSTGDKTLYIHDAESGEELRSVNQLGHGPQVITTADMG", "data": [{"substance": "MauG (from UniProt Q51658)", "values": [{"measurement": "Kd", "result": 10.1, "unit": "µM"}]}]}
